# Measured values published in US20130052198A1, “ANTI-INFLAMMATORY FACTORS” (THE GENERAL HOSPITAL CORPORATION, priority 2010, published 2013).
# “Also recorded” adds a separate entry of the source.
# Legend:
# [1] = test system: human leukocytes in culture; experiment: Cytokine production (IL-10 or IFN-γ) in human leukocytes in culture; format: cell-based; conditions: concentrations within five orders of magnitude of 10 μg/mL
# Procedure: Leukocytes were prepared from fresh whole human blood, collected and spun in the presence of Ficoll for 30 minutes at 1500×g. The mononuclear cell layer was transferred to a new tube where it was washed once with RPMI 1640. The mononuclear cells were plated at a density of 1×10^5 per well of a 96-well plate in 50 μL of RPMI 1640 per well. MSC-CM was then immediately added to each well and allowed to incubate in the presence of the mononuclear cells for 16 hours. After incubation, 50 μL of RPMI 1640 containing 10 μg/mL of LPS was added to each well and allowed to incubate for an additional 5 hours. The resultant supernatants were collected and analyzed via ELISA for human interleukin-10 (IL-10). This procedure of incubating leukocytes with MSC-CM to determine IL-10 stimulating activity will be henceforth referred to as the “IL-10 assay”.
# Preparations and use of MSC-CM, Fb-CM, LPS-stimulated MSC-CM, leukocytes were as described in Examples 1-3 and the Figures. These conditioned media preparations were added to leukocyte cultures for 16 hours, after which the culture was stimulated with LPS at 10 μg/ml. The medium from this culture was collected 24 hours after LPS stimulation of leukocytes and analyzed using an IFN-γ ELISA.
# [2] = test system: BALB/cJ mice challenged with a sub-lethal dose of LPS; experiment: In vivo LPS assay, sub-lethal LPS model: serum cytokines and lung histology; conditions: for serum IL-10 levels / serum TNF-α: 3 μg protein or 1 mL 1×BMSC-CM IP, twice, 100 μg LPS, 48 h later, compared to saline
# Procedure: FIG. 8: In vivo hit screen and survival study. (a) Schematic of the in vivo LPS assay. Proteins were administered intraperitoneal (IP) at the concentration that elicited the strongest effect in vitro, followed by IP administration of LPS in conjunction with a second dose of the proteins 16 hours later. Two days after the combined LPS and second protein dose, the mice were sacrificed and assessed for changes in serum cytokines and tissue histology. (b) Serum IL-10 levels of BALB/cJ mice subjected to the in vivo LPS assay. * p<0.001 compared to saline. (c) Serum TNF-α levels of BALB/cJ mice subjected to the in vivo LPS assay. * p<0.001 compared to saline, ** p<0.05 compared to BMSC-CM. (d) Representative micrographs of lung tissue from mice subjected to the in vivo LPS assay stained with hematoxylin and eosin. (e) Survival of mice subjected to a lethal dose of LPS i.p. (350 μg) concurrently with i.p. saline vehicle (bold dark blue line), 5 μg Anti-TNF-α antibody (thin dark blue line), 4 μg PENK (bold light blue line) or 4 μg MFAP5 (thin light blue line). Scale bar=200 μm.
# All procedures were performed in accordance with the animal rights policies of the Massachusetts General Hospital Subcommittee on Research Animal Care. For the sub-lethal LPS model, eight week old female BALB/cJ mice (n≧3) (Jackson Laboratories, Bar Harbor, Me.) were administered an initial dose of either vehicle or one of the experimental therapies IP: 200 μL of saline (vehicle), or 3 μg of protein (e.g., GALNT1, LGALS3BP, MFAP5 or PENK) diluted in 200 μL of saline, or 1 mL of 1×BMSC-CM. 16 hours later, mice received a second dose of either vehicle or therapy in conjunction with a dose of 100 μg of LPS (E. coli 0111:B4; Sigma, St. Louis, Mo.) diluted in physiological saline. 48 hours later, mice were sacrificed and tissue and blood were collected for analysis. Serum was tested for the presence of IL-10 and TNF-α via ELISA and lungs, livers and kidneys of the animals were preserved for hematoxylin and eosin staining. For the lethal LPS model, eight week old female BALB/cJ mice (n≧5) were co-administered a lethal dose of LPS (350 μg LPS in 100 μL physiological saline) and either vehicle (negative control), 5 μg anti-TNF-α (positive control; R&D Systems, Minneapolis, Minn.), 4 μg MFAP5 diluted in 100 μL of physiological saline, or 4 μg of PENK diluted in 100 μL of physiological saline. Mice were monitored for survival for seven days (168 hours).
# [3] = test system: human peripheral blood mononuclear cells (PBMCs); experiment: PBMC potency assay (IL-10 assay): IL-10 secretion by LPS-stimulated PBMCs, ELISA; format: cell-based; conditions: recombinant molecules diluted in RPMI 1640
# Excerpt: FIG. 1: MSC conditioned medium causes peripheral blood mononuclear cells to secrete IL-10 in response to LPS, providing the basis for differential gene expression analysis to identify genes responsible for the increased activity. (a) Generalized schematic of EPS methodology. Protein products are derived from various cell types in the form of conditioned media and screened for activity in an in vitro potency assay. […] Recombinant protein products of the enriched gene list are then screened in a potency assay and the candidates with the highest activity are assessed for activity in vivo. (b) In vitro potency assay. This assay entails incubating primary human peripheral blood mononuclear cells (PBMCs) in the presence of protein products (e.g., conditioned medium from a cell) for 16 hours, followed by stimulation of the PBMCs with LPS for five hours, and measurement of IL-10 secretion into the supernatant via ELISA. (c) Time course of IL-10 expression from PBMCs when incubated with either bone marrow stromal cell conditioned medium (BMSC-CM) or unconditioned medium (DMEM) in the potency assay. (d) Comparison of potency assay activity of conditioned medium from normal human dermal fibroblasts (FB-CM), BMSCs (BMSC-CM) and BMSCs preincubated with LPS prior to conditioning (BMSCLPS-CM). * p<0.001 compared to FB-CM, ** p<0.001 compared to BMSC-CM. (e) Schematic of the differential gene expression comparison strategy to select for genes uniquely expressed at high levels in LPS stimulated MSCs (MSCLPS) compared to MSCs and fibroblasts (FBs). Analysis was then conducted on the genes identified to select for genes that were most likely to be responsible for secreted proteins. MSCLPS, LPS stimulated MSC; FB, fibroblast. […]
# Leukocytes were prepared from fresh whole human blood, collected and spun in the presence of Ficoll for 30 minutes at 1500×g. […] The resultant supernatants were collected and analyzed via ELISA for human interleukin-10 (IL-10). […]
# [4] = test system: colitic mice (TNBS colitis); experiment: TNBS colitis in mice, colon histopathology; format: in vivo; conditions: 3 μg protein twice over 24 h; sacrifice at day 2; compared to vehicle (saline)
# Procedure: FIG. 6: Administered MFAP5 and LGALS3BP protect mice from developing TNBS colitis. Mice were presensitized via the skin with 1% TNBS one week prior to intra-rectal administration of 3 mg of TNBS per mouse in a mixture of 50% EtOH and 50% sterile water to induce colitis. Mice were treated with 3 μg each of MFAP5, LGALS3BP and GALNT1 twice over a 24 hour period, once in conjunction with the TNBS administration and once 24 hours later. Mice were then sacrificed at day 2 and tissue collected for analysis. As expected, mice treated with vehicle (saline) developed extensive inflammation of the colon with loss of crypts and frank necrosis of the intestinal epithelium.
# MFAP5, LGALS3BP and PENK all protected the colonic epithelium from the hallmark features of TNBS colitis: necrosis, inflammatory infiltrate and loss of crypts. Especially at the microscopic level, the tissue of the MFAP5, LGALS3BP and PENK treated animals looked mostly normal with minor foci of inflammation and edema.
Molecule,promote IL-10 production or suppress IFN-γ production [1],serum IL-10 levels [2],serum TNF-α [2],"lung histology (lung protection) ([2]; hematoxylin and eosin, sub-lethal LPS model, compared to vehicle)",increase of IL-10 production compared to 10×MSC-CM [3],protection from TNBS colitis (colon histopathology) [4]
"CRLF1: isolated and purified molecular product of the gene CRLF1 (protein, UniProt O75462 38-422, looked up) Cytokine receptor-like factor …: AHTAVISPQDPTLLIGSSLLATCSVHGDPPGATAEGLYWTLNGRRLPPELSRVLNASTLALALANLNGSRQRSGDNLVCHARDGSILAGSCLYVGLPPEKPVNISCWSKNMKDLTCRWTPGAHGETFLHTNYSLKYKLRWYGQDNTCEEYHTVGPHSCHIPKDLALFTPYEIWVEATNRLGSARSDVLTLDILDVVTTDPPPDVHVSRVGGLEDQLSVRWVSPPALKDFLFQAKYQIRYRVEDSVDWKVVDDVSNQTSCRLAGLKPGTVYFVQVRCNPFGIYGSKKAGIWSEWSHPTAASTPRSERPGPGGGACEPRGGEPSSGPVRRELKQFLGWLKKHAYCSNLSFRLYDQWRAWMQKSHKTRNQDEGILPSGRRGTARGPAR",either promote IL-10 production or suppress IFN-γ production,–,–,–,–,–
"UDP-N-acetyl-α-D-galactosamine:polypeptide N-acetylgalactosaminyltransferase 1 (protein, UniProt Q10472 1-559, looked up, recombinant protein product of the GALNT1 gene, secreted factor of marrow stromal cells) Polypeptide …: MRKFAYCKVVLATSLIWVLLDMFLLLYFSECNKCDEKKERGLPAGDVLEPVQKPHEGPGEMGKPVVIPKEDQEKMKEMFKINQFNLMASEMIALNRSLPDVRLEGCKTKVYPDNLPTTSVVIVFHNEAWSTLLRTVHSVINRSPRHMIEEIVLVDDASERDFLKRPLESYVKKLKVPVHVIRMEQRSGLIRARLKGAAVSKGQVITFLDAHCECTVGWLEPLLARIKHDRRTVVCPIIDVISDDTFEYMAGSDMTYGGFNWKLNFRWYPVPQREMDRRKGDRTLPVRTPTMAGGLFSIDRDYFQEIGTYDAGMDIWGGENLEISFRIWQCGGTLEIVTCSHVGHVFRKATPYTFPGGTGQIINKNNRRLAEVWMDEFKNFFYIISPGVTKVDYGDISSRVGLRHKLQCKPFSWYLENIYPDSQIPRHYFSLGEIRNVETNQCLDNMARKENEKVGIFNCHGMGGNQVFSYTANKEIRTDDLCLDVSKLNGPVTMLKCHHLKGNQLWEYDPVKLTLQHVNSNQCLDKATEEDSQVPSIRDCNGSRSQQWLLRNVTLPEIF",either promote IL-10 production or suppress IFN-γ production,Significantly elevated,not,moderate protection,superior to that induced by 10×MSC-CM,not protected from development of colitis
"TFPI2: isolated and purified molecular product of the gene TFPI2 (protein, UniProt P48307 23-235, looked up) Tissue factor pathway …: DAAQEPTGNNAEICLLPLDYGPCRALLLRYYYDRYTQSCRQFLYGGCEGNANNFYTWEACDDACWRIEKVPKVCRLQVSVDDQCEGSTEKYFFNLSSMTCEKFFSGGCHRNRIENRFPDEATCMGFCAPKKIPSFCYSPKDEGLCSANVTRYYFNPRYRTCDAFTYTGCGGNDNNFVSREDCKRACAKALKKKKKMPKLRFASRIRKIRKKQF",either promote IL-10 production or suppress IFN-γ production,–,–,–,–,–
"LGALS3BP: Soluble galectin 3 binding protein, highly glycosylated secreted protein; recombinant form tested (protein, UniProt Q08380 19-585, looked up) Galectin-3-binding protein: VNDGDMRLADGGATNQGRVEIFYRGQWGTVCDNLWDLTDASVVCRALGFENATQALGRAAFGQGSGPIMLDEVQCTGTEASLADCKSLGWLKSNCRHERDAGVVCTNETRSTHTLDLSRELSEALGQIFDSQRGCDLSISVNVQGEDALGFCGHTVILTANLEAQALWKEPGSNVTMSVDAECVPMVRDLLRYFYSRRIDITLSSVKCFHKLASAYGARQLQGYCASLFAILLPQDPSFQMPLDLYAYAVATGDALLEKLCLQFLAWNFEALTQAEAWPSVPTDLLQLLLPRSDLAVPSELALLKAVDTWSWGERASHEEVEGLVEKIRFPMMLPEELFELQFNLSLYWSHEALFQKKTLQALEFHTVPFQLLARYKGLNLTEDTYKPRIYTSPTWSAFVTDSSWSARKSQLVYQSRRGPLVKYSSDYFQAPSDYRYYPYQSFQTPQHPSFLFQDKRVSWSLVYLPTIQSCWNYGFSCSSDELPVLGLTKSGGSDRTIAYENKALMLCEGLFVADVTDFEGWKAAIPSALDTNSSKSTSSFPCPAGHFNGFRTVIRPFYLTNSSGVD",either promote IL-10 production or suppress IFN-γ production,no IL-10 response,significantly suppressed,–,superior to that induced by 10×MSC-CM,protect the mice from developing acute colitis; also recorded: significant attenuation of colitis; also recorded: protected from developing extensive colonic inflammation
